PMC5444859

What was measured:
[1] = target: CASV L-Cterm (C-terminal 326 amino acids of the California Academy of Sciences virus L protein, residues 1721-2046) (California Academy of Sciences virus (CASV)) (UniProt J7HBG8); experiment: SEC
[2] = target: CASV L-Cterm (C-terminal 326 amino acids of the California Academy of Sciences virus L protein, residues 1721-2046) (California Academy of Sciences virus (CASV)) (UniProt J7HBG8); experiment: SAXS
[3] = target: isolated CASV L-Cterm domain 2 (California Academy of Sciences virus (CASV)); experiment: SAXS

| Substance | stoichiometry N [1] | stoichiometry N [2] | stoichiometry N [3] |
| --- | --- | --- | --- |
| CASV L-Cterm (C-terminal 326 amino acids of the California Academy of Sciences virus L protein, residues 1721-2046) (from UniProt J7HBG8 1721-2046) (domain or fragment) | 2 | 2 |  |
| isolated CASV L-Cterm domain 2 (domain or fragment) |  |  | 2 |
